Reference: patent US20260265379A1 (IMCHECK THERAPEUTICS, published 2026)

B1: bsAb026 (bispecific antibody)
heavy: QVQLVQSGAEVKKPGASVKLSCKASGYIFTRYYMYWVKQRPGQGLEWIGEINPNNGGTKFNEKFKNRATLTVDKSISTAYMELSRLRSDDTAVYYCSREDDYDGTPFAMDYWGQGTLVTVSSASTKGPSVFPLAPSSKSTSGGTAALGCLVKDYFPEPVTVSWNSGALTSGVHTFPAVLQSSGLYSLSSVVTVPSSSLGTQTYICNVNHKPSNTKVDKRVEPKSCDKTHTCPPCPAPEFEGGPSVFLFPPKPKDTLMISRTPEVTCVVVDVSHEDPEVKFNWYVDGVEVHNAKTKPREEQYNSTYRVVSVLTVLHQDWLNGKEYKCKVSNKALPASIEKTISKAKGQPREPQVYTLPPSREEMTKNQVSLTCLVKGFYPSDIAVEWESNGQPENNYKTTPPVLDSDGSFFLYSKLTVDKSRWQQGNVFSCSVMHEALHNHYTQKSLSLSPGGGGGSGGGGSGGGGSGGGGSQVQLVQSGVEVKKPGASVKVSCKASGYTFTNYYMYWVRQAPGQGLEWMGGINPSNGGTNFNEKFKNRVTLTTDSSTTTAYMELKSLQFDDTAVYYCARRDYRFDMGFDYWGQGTTVTVSSASTKGPSVFPLAPSSKSTSGGTAALGCLVKDYFPEPVTVSWNSGALTSGVHTFPAVLQSSGLYSLSSVVTVPSSSLGTQTYICNVNHKPSNTKVDKKVEPKSCDKTHTGGSSGSGSGSTGTSSSGTGTSAGTTGTSASTSGSGSGGGGGSGGGGSAGGEIVLTQSPATLSLSPGERATLSCRASKGVSTSGYSYLHWYQQKPGQAPRLLIYLASYLESGVPARFSGSGSGTDFTLTISSLEPEDFAVYYCQHSRDLPLTFGGGTKVEIKRTVAAPSVFIFPPSDEQLKSGTASVVCLLNNFYPREAKVQWKVDNALQSGNSQESVTEQDSKDSTYSLSSTLTLSKADYEKHKVYACEVTHQGLSSPVTKSFNRGEC
light: not shown
notes: IgG anti-BTN3A, scFab anti-PD-1; formula printed IgG(H)-VH-CH1-linker1-VL-CL-linker2-
B2: bsAb042 (bispecific antibody)
heavy 1: QVQLVQSGVEVKKPGASVKVSCKASGYTFTNYYMYWVRQAPGQGLEWMGGINPSNGGTNFNEKFKNRVTLTTDSSTTTAYMELKSLQFDDTAVYYCARRDYRFDMGFDYWGQGTTVTVSS
heavy 2: QVQLVQSGAEVKKPGASVKLSCKASGYIFTRYYMYWVKQRPGQGLEWIGEINPNNGGTKFNEKFKNRATLTVDKSISTAYMELSRLRSDDTAVYYCSREDDYDGTPFAMDYWGQGTLVTVSSGGGGSGGGGSGGGGSGGGGSDIQMTQSPSSLSASVGDRVTITCHASQNINVWLSWYQQKPGKAPKLLIYKASNLHTGVPSRFTGSGSGTDFTFTISSLQPEDIATYYCQQGQTYPYTFGQGTKLEIKGGGGSGGGGSGGGGSGGGGS
light: EIVLTQSPATLSLSPGERATLSCRASKGVSTSGYSYLHWYQQKPGQAPRLLIYLASYLESGVPARFSGSGSGTDFTLTISSLEPEDFAVYYCQHSRDLPLTFGGGTKVEIKRTVAAPSVFIFPPSDEQLKSGTASVVCLLNNFYPREAKVQWKVDNALQSGNSQESVTEQDSKDSTYSLSSTLTLSKADYEKHKVYACEVTHQGLSSPVTKSFNRGECGGGGSGGGGSGGGGSGGGGSDIQMTQSPSSLSASVGDRVTITCHASQNINVWLSWYQQKPGKAPKLLIYKASNLHTGVPSRFTGSGSGTDFTFTISSLQPEDIATYYCQQGQTYPYTFGQGTKLEIKGGGGSGGGGSGGGGSGGGGSQVQLVQSGAEVKKPGASVKLSCKASGYIFTRYYMYWVKQRPGQGLEWIGEINPNNGGTKFNEKFKNRATLTVDKSISTAYMELSRLRSDDTAVYYCSREDDYDGTPFAMDYWGQGTLVTVSS
notes: one Fab arm anti-PD-1, two scFv anti-BTN3A; not shown: IgG1 CH1-hinge-CH2-CH3; CH2-CH3 (Fc)
B3: bsAb014 (bispecific antibody)
heavy: QVQLVQSGAEVKKPGASVKLSCKASGYIFTRYYMYWVKQRPGQGLEWIGEINPNNGGTKFNEKFKNRATLTVDKSISTAYMELSRLRSDDTAVYYCSREDDYDGTPFAMDYWGQGTLVTVSSASTKGPSVFPLAPSSKSTSGGTAALGCLVKDYFPEPVTVSWNSGALTSGVHTFPAVLQSSGLYSLSSVVTVPSSSLGTQTYICNVNHKPSNTKVDKRVEPKSCDKTHTCPPCPAPEFEGGPSVFLFPPKPKDTLMISRTPEVTCVVVDVSHEDPEVKFNWYVDGVEVHNAKTKPREEQYNSTYRVVSVLTVLHQDWLNGKEYKCKVSNKALPASIEKTISKAKGQPREPQVYTLPPSREEMTKNQVSLTCLVKGFYPSDIAVEWESNGQPENNYKTTPPVLDSDGSFFLYSKLTVDKSRWQQGNVFSCSVMHEALHNHYTQKSLSLSPG
light: not shown
notes: IgG anti-BTN3A, scFv anti-PD-1
B4: ICT01 (antibody, V domains shown)
VH: QVQLVQSGAEVKKPGASVKLSCKASGYIFTRYYMYWVKQRPGQGLEWIGEINPNNGGTKFNEKFKNRATLTVDKSISTAYMELSRLRSDDTAVYYCSREDDYDGTPFAMDYWGQGTLVTVSS
VL: DIQMTQSPSSLSASVGDRVTITCHASQNINVWLSWYQQKPGKAPKLLIYKASNLHTGVPSRFTGSGSGTDFTFTISSLQPEDIATYYCQQGQTYPYTFGQGTKLEIK
notes: also called anti-BTN3A mAb; mAb 7.2
B5: bsAb018 (bispecific antibody)
heavy: EIVLTQSPATLSLSPGERATLSCRASKGVSTSGYSYLHWYQQKPGQAPRLLIYLASYLESGVPARFSGSGSGTDFTLTISSLEPEDFAVYYCQHSRDLPLTFGGGTKVEIKGGGGSGGGGSGGGGSGGGGSQVQLVQSGVEVKKPGASVKVSCKASGYTFTNYYMYWVRQAPGQGLEWMGGINPSNGGTNFNEKFKNRVTLTTDSSTTTAYMELKSLQFDDTAVYYCARRDYRFDMGFDYWGQGTTVTVSSGGGGSGGGGSGGGGSGGGGSQVQLVQSGAEVKKPGASVKLSCKASGYIFTRYYMYWVKQRPGQGLEWIGEINPNNGGTKFNEKFKNRATLTVDKSISTAYMELSRLRSDDTAVYYCSREDDYDGTPFAMDYWGQGTLVTVSSASTKGPSVFPLAPSSKSTSGGTAALGCLVKDYFPEPVTVSWNSGALTSGVHTFPAVLQSSGLYSLSSVVTVPSSSLGTQTYICNVNHKPSNTKVDKRVEPKSCDKTHTCPPCPAPEFEGGPSVFLFPPKPKDTLMISRTPEVTCVVVDVSHEDPEVKFNWYVDGVEVHNAKTKPREEQYNSTYRVVSVLTVLHQDWLNGKEYKCKVSNKALPASIEKTISKAKGQPREPQVYTLPPSREEMTKNQVSLTCLVKGFYPSDIAVEWESNGQPENNYKTTPPVLDSDGSFFLYSKLTVDKSRWQQGNVFSCSVMHEALHNHYTQKSLSLSPG
light: not shown
notes: as for B3
B6: bsAb001 (bispecific antibody, human IgG1, kappa)
heavy: QVQLVQSGAEVKKPGASVKLSCKASGYIFTRYYMYWVKQRPGQGLEWIGEINPNNGGTKFNEKFKNRATLTVDKSISTAYMELSRLRSDDTAVYYCSREDDYDGTPFAMDYWGQGTLVTVSSASTKGPSVFPLAPSSKSTSGGTAALGCLVKDYFPEPVTVSWNSGALTSGVHTFPAVLQSSGLYSLSSVVTVPSSSLGTQTYICNVNHKPSNTKVDKRVEPKSCDKTHTCPPCPAPEFEGGPSVFLFPPKPKDTLMISRTPEVTCVVVDVSHEDPEVKFNWYVDGVEVHNAKTKPREEQYNSTYRVVSVLTVLHQDWLNGKEYKCKVSNKALPASIEKTISKAKGQPREPQVYTLPPSREEMTKNQVSLTCLVKGFYPSDIAVEWESNGQPENNYKTTPPVLDSDGSFFLYSKLTVDKSRWQQGNVFSCSVMHEALHNHYTQKSLSLSPGGGGGSGGGGSGGGGSGGGGSQVQLVQSGVEVKKPGASVKVSCKASGYTFTNYYMYWVRQAPGQGLEWMGGINPSNGGTNFNEKFKNRVTLTTDSSTTTAYMELKSLQFDDTAVYYCARRDYRFDMGFDYWGQGTTVTVSSGGGGSGGGGSGGGGSGGGGSEIVLTQSPATLSLSPGERATLSCRASKGVSTSGYSYLHWYQQKPGQAPRLLIYLASYLESGVPARFSGSGSGTDFTLTISSLEPEDFAVYYCQHSRDLPLTFGGGTKVEIK
light: not shown
notes: IgG anti-BTN3A, scFv anti-PD-1 (VH-VL) at heavy chain C-terminus

Each binder was assayed against T1, recombinant human BTN3A1 (human, UniProt O00481 30-254) (assay: SPR).
T1 construct: Soluble form of the antigen used in SPR; also called rhBTN3A1; recombinant BTN3A1 protein
T1 sequence (O00481 30-254 limits assumed): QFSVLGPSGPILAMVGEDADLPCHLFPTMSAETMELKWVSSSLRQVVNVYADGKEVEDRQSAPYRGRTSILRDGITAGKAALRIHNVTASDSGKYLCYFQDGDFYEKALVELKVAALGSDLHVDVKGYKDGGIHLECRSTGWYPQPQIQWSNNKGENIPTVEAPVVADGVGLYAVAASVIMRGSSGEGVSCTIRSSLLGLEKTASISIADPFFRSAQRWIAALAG
Procedure: SPR measures the interactions between two or more biomolecules. In capture kinetics analysis, an antibody is immobilized onto a gold-plated prism. The immobilized antibody is referred to as the ligand. An injection of antigen, referred to as the analyte, is carried out, often as a concentration series. The captured analytes are removed from the sensor chip surface using a regenerating agent, for example a low pH or high ionic strength solution. If investigating binding to several analytes, the antibodies are recaptured from solution before each analyte titration series. The instrument records the changes in refractive indexes (due to the accumulation or depletion of mass) in time and plots the results as sensorgrams.
Affinity measurements with respect to BTN3A, PD-1 and PD-L1 were performed by SPR technology, for instance in a Carterra LSA Platform instrument using a soluble form of the antigen as the analyte and the antibody as the ligand. Binding was also assessed through in cellulo binding assays, on cell lines (e.g. HEK293T cells) genetically modified to express the targets of interest or genetically modified to extinct target expression.
The 69 produced bsAbs and control mAbs were also evaluated for their binding affinity to recombinant proteins by SPR assays. The equilibrium dissociation constant (KD) was then calculated for constructs showing detectable binding.

Row | Binder | Kd
1 | B1 | 0.068 nM
2 | B2 | 0.093 nM
3 | B3 | 0.083 nM
4 | B4 | 0.073 nM
5 | B5 | 0.212 nM

What follows are binders tested against T2, PD-1 at the surface of Jurkat-PD-1 cells (human, UniProt Q15116 25-288) (assay: cell-based or functional assay).
T2 sequence (Q15116 25-288): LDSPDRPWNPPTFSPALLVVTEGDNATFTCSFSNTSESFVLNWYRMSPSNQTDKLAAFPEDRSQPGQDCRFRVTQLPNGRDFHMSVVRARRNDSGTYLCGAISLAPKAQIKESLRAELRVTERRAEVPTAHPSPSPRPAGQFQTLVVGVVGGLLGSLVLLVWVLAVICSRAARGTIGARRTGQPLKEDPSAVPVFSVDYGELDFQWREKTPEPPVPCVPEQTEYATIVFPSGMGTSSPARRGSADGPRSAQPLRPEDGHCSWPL

Row | Binder | Jurkat-PD-1 activation at 10 nM | Jurkat-PD-1 activation at 100 nM
6 | B3 | 5.9 fold-change to medium | 1.9 fold-change to medium
7 | B6 | 8 fold-change to medium | 

Each binder was assayed against T3, BTN3A1 at the surface of HEK-BTN3A1 cells (human, UniProt O00481 30-513) (assay: flow cytometry, HEK-BTN3A1 cells).
T3 construct: HEK 293T BTN2A/BTN3A KO cells transduced with a BTN3A1 expressing vector
T3 sequence (O00481 30-513 limits assumed): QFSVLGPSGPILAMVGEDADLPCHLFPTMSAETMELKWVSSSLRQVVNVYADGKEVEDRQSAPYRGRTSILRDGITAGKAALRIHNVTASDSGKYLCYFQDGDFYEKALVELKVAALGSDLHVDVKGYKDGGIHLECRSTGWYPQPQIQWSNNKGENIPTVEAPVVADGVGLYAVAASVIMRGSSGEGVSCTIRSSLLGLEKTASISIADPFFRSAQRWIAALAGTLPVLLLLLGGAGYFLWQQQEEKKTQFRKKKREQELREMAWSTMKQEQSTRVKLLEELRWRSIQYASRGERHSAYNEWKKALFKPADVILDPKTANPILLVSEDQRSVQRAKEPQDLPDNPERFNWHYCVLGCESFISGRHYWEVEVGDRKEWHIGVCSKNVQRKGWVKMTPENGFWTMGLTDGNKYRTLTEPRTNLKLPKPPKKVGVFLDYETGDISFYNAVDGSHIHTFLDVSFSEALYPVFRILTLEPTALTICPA

Row | Binder | MFI at 10 nM | MFI at 100 nM
8 | B1 | 410000 MFI | 1.03e+06 MFI
9 | B2 | 824000 MFI | 1.24e+06 MFI
10 | B3 | 464000 MFI | 812000 MFI
11 | B4 | 1.01e+06 MFI | 1.82e+06 MFI
12 | B5 | 502000 MFI | 1.08e+06 MFI
13 | B6 | 507000 MFI | 710000 MFI

What follows are binders tested against T2, PD-1 at the surface of Jurkat-PD-1 cells (assay: flow cytometry, Jurkat-PD-1 cells).

Row | Binder | MFI at 10 nM | MFI at 100 nM
14 | B1 | 73300 MFI | 257000 MFI
15 | B2 | 212000 MFI | 362000 MFI
16 | B3 | 165000 MFI | 290000 MFI
17 | B5 |  | 347000 MFI
18 | B6 | 179000 MFI | 396000 MFI
